Laboratory results taken from patent EP1757701A1.

Legend:
Y0317-570 Fab [1] = assay: BIAcore; estimated from the observed koff with an assumed kon
Y0317-570 Fab [2] = assay: BIAcore, 1:1 Langmuir model: Herceptin dissociating from Y0317-570 Fab held on immobilized VEGF

Work on “4D5-IgG, also known as Herceptin® (antibody)” yielded a Kd (Y0317-570 Fab [1]) of 30 to 300 nM and a dissociation half-life (t1/2) (Y0317-570 Fab [2]) of 8.5 min.
